Results published in the Immune Epitope Database (IEDB).

Experiments:
HLA-A*02:01 [1] = assay: IEDB peptide-MHC binding, cellular MHC/competitive/fluorescence; ≥ and ≤ were set here for values at or beyond the usual limits of such assays; details: source organism: Vaccinia virus WR
HLA-A*02:03 = assay: IEDB peptide-MHC binding, purified MHC/competitive/radioactivity; ≥ and ≤ were set here for values at or beyond the usual limits of such assays
HLA-A*68:02 = assay: as above
HLA-A*02:06 = assay: as above
HLA-A*02:02 = assay: as above
HLA-A*02:01 [2] = assay: as above
[3] = source organism: Vaccinia virus WR
[4] = source organism: Hepacivirus hominis

ELIDVLKTRL
IC50 (HLA-A*02:01 [1]): 5.43 µM
IC50 (HLA-A*02:03; [3]): 118 nM
IC50 (HLA-A*68:02; [3]): 1420 nM
IC50 (HLA-A*02:06; [3]): 1990 nM
IC50 (HLA-A*02:02; [3]): 262 nM

TTNNLLEQL
IC50 (HLA-A*02:01 [1]): 40.6 µM
IC50 (HLA-A*02:03; [3]): 1420 nM
IC50 (HLA-A*68:02; [3]): 48 nM
IC50 (HLA-A*02:06; [3]): 3040 nM
IC50 (HLA-A*02:02; [3]): 122 nM

PASISSVLTI
IC50 (HLA-A*02:01 [1]): 5.91 µM
IC50 (HLA-A*02:03; [3]): 83 nM
IC50 (HLA-A*68:02; [3]): 4510 nM
IC50 (HLA-A*02:06; [3]): 1550 nM
IC50 (HLA-A*02:02; [3]): 1360 nM

NIKISLNEIL
IC50 (HLA-A*02:01 [1]): 9.63 µM
IC50 (HLA-A*02:03; [3]): 1390 nM
IC50 (HLA-A*68:02; [3]): 1610 nM
IC50 (HLA-A*02:06; [3]): 557 nM
IC50 (HLA-A*02:02; [3]): 705 nM

ILKDPRIASI
IC50 (HLA-A*02:01 [1]): 5.03 µM
IC50 (HLA-A*02:03; [3]): 1030 nM
IC50 (HLA-A*68:02; [3]): 4520 nM
IC50 (HLA-A*02:06; [3]): 4000 nM
IC50 (HLA-A*02:02; [3]): 3160 nM

LLAPITAYA
IC50 (HLA-A*02:03; [4]): 0.61 nM
IC50 (HLA-A*68:02; [4]): 1.5 nM
IC50 (HLA-A*02:01 [2]; [4]): 2.9 nM
IC50 (HLA-A*02:06; [4]): 5.3 nM
IC50 (HLA-A*02:02; [4]): 0.27 nM

FMRFFTLGSI
IC50 (HLA-A*02:03; source organism: SARS-CoV1): 0.76 nM
IC50 (HLA-A*68:02; source organism: SARS-CoV1): 412 nM
IC50 (HLA-A*02:01 [2]; source organism: SARS-CoV1): 105 nM
IC50 (HLA-A*02:06; source organism: SARS-CoV1): 195 nM
IC50 (HLA-A*02:02; source organism: SARS-CoV1): 24 nM

KVEKYLPEV
IC50 (HLA-A*02:03; [3]): 171 nM
IC50 (HLA-A*68:02; [3]): 1520 nM
IC50 (HLA-A*02:01 [2]; [3]): 17 nM
IC50 (HLA-A*02:06; [3]): 116 nM
IC50 (HLA-A*02:02; [3]): 1050 nM

NVIGLIVIL
IC50 (HLA-A*02:03; [3]): 2400 nM
IC50 (HLA-A*68:02; [3]): 0.17 nM
IC50 (HLA-A*02:01 [2]; [3]): 342 nM
IC50 (HLA-A*02:06; [3]): 15 nM
IC50 (HLA-A*02:02; [3]): 85 nM

SLCSCICTV
IC50 (HLA-A*02:03; source organism: SARS-CoV1): 4.2 nM
IC50 (HLA-A*68:02; source organism: SARS-CoV1): 1670 nM
IC50 (HLA-A*02:01 [2]; source organism: SARS-CoV1): 3.2 nM
IC50 (HLA-A*02:06; source organism: SARS-CoV1): 5.8 nM
IC50 (HLA-A*02:02; source organism: SARS-CoV1): 4 nM

AIAACAMLLV
IC50 (HLA-A*02:03; source organism: SARS-CoV1): 32 nM
IC50 (HLA-A*68:02; source organism: SARS-CoV1): 1430 nM
IC50 (HLA-A*02:01 [2]; source organism: SARS-CoV1): 36 nM
IC50 (HLA-A*02:06; source organism: SARS-CoV1): 78 nM
IC50 (HLA-A*02:02; source organism: SARS-CoV1): 5.9 nM

YMSNLFDIPL
IC50 (HLA-A*02:03; [3]): 10 nM
IC50 (HLA-A*68:02; [3]): 471 nM
IC50 (HLA-A*02:01 [2]; [3]): 18 nM
IC50 (HLA-A*02:06; [3]): 127 nM
IC50 (HLA-A*02:02; [3]): 19 nM

TIFDIVSKCI
IC50 (HLA-A*02:03; [3]): 94 nM
IC50 (HLA-A*68:02; [3]): 109 nM
IC50 (HLA-A*02:01 [2]; [3]): 596 nM
IC50 (HLA-A*02:06; [3]): 701 nM
IC50 (HLA-A*02:02; [3]): 198 nM

GLIAIVMVTI
IC50 (HLA-A*02:03; source organism: SARS-CoV1): 19 nM
IC50 (HLA-A*68:02; source organism: SARS-CoV1): 1670 nM
IC50 (HLA-A*02:01 [2]; source organism: SARS-CoV1): 61 nM
IC50 (HLA-A*02:06; source organism: SARS-CoV1): 137 nM
IC50 (HLA-A*02:02; source organism: SARS-CoV1): 7.6 nM

KIMEIVSHL
IC50 (HLA-A*02:03; [3]): 10 nM
IC50 (HLA-A*68:02; [3]): 1070 nM
IC50 (HLA-A*02:01 [2]; [3]): 76 nM
IC50 (HLA-A*02:06; [3]): 30 nM
IC50 (HLA-A*02:02; [3]): 79 nM

GVMYAFTTPL
IC50 (HLA-A*02:03; [3]): 44 nM
IC50 (HLA-A*68:02; [3]): 2540 nM
IC50 (HLA-A*02:01 [2]; [3]): 83 nM
IC50 (HLA-A*02:06; [3]): 45 nM
IC50 (HLA-A*02:02; [3]): 34 nM

SIVCIVAAV
IC50 (HLA-A*02:03; [3]): 2.8 nM
IC50 (HLA-A*68:02; [3]): 0.55 nM
IC50 (HLA-A*02:01 [2]; [3]): 5.3 nM
IC50 (HLA-A*02:06; [3]): 3.5 nM
IC50 (HLA-A*02:02; [3]): 3.9 nM

IMAFILGII
IC50 (HLA-A*02:03; [3]): 30 nM
IC50 (HLA-A*68:02; [3]): 2520 nM
IC50 (HLA-A*02:01 [2]; [3]): 166 nM
IC50 (HLA-A*02:06; [3]): 175 nM
IC50 (HLA-A*02:02; [3]): 17 nM

VVISVIFYFI
IC50 (HLA-A*02:03; [3]): 755 nM
IC50 (HLA-A*68:02; [3]): 583 nM
IC50 (HLA-A*02:01 [2]; [3]): 616 nM
IC50 (HLA-A*02:06; [3]): 542 nM
IC50 (HLA-A*02:02; [3]): 239 nM

ILMTHFFSI
IC50 (HLA-A*02:03; [4]): 1 nM
IC50 (HLA-A*68:02; [4]): 185 nM
IC50 (HLA-A*02:01 [2]; [4]): 1.3 nM
IC50 (HLA-A*02:06; [4]): 4.7 nM
IC50 (HLA-A*02:02; [4]): 6.7 nM

HLMSDNPKA
IC50 (HLA-A*02:03; [3]): 279 nM
IC50 (HLA-A*68:02; [3]): 1100 nM
IC50 (HLA-A*02:01 [2]; [3]): 45 nM
IC50 (HLA-A*02:06; [3]): 523 nM
IC50 (HLA-A*02:02; [3]): 57 nM

IAACAMLLV
IC50 (HLA-A*02:03; source organism: SARS-CoV1): 387 nM
IC50 (HLA-A*68:02; source organism: SARS-CoV1): 389 nM
IC50 (HLA-A*02:01 [2]; source organism: SARS-CoV1): 567 nM
IC50 (HLA-A*02:06; source organism: SARS-CoV1): 131 nM
IC50 (HLA-A*02:02; source organism: SARS-CoV1): 320 nM

RAKRKPAMST
IC50 (HLA-A*02:03; [3]): 1380 nM
IC50 (HLA-A*68:02; [3]): 551 nM
IC50 (HLA-A*02:01 [2]; [3]): 785 nM
IC50 (HLA-A*02:06; [3]): 1550 nM
IC50 (HLA-A*02:02; [3]): 977 nM

ALIARCWYL
IC50 (HLA-A*02:03; source organism: SARS-CoV1): 17 nM
IC50 (HLA-A*68:02; source organism: SARS-CoV1): 1260 nM
IC50 (HLA-A*02:01 [2]; source organism: SARS-CoV1): 0.46 nM
IC50 (HLA-A*02:06; source organism: SARS-CoV1): 0.98 nM
IC50 (HLA-A*02:02; source organism: SARS-CoV1): 0.2 nM

TIKESLLKET
IC50 (HLA-A*02:03; [3]): 149 nM
IC50 (HLA-A*68:02; [3]): 296 nM
IC50 (HLA-A*02:01 [2]; [3]): 85 nM
IC50 (HLA-A*02:06; [3]): 87 nM
IC50 (HLA-A*02:02; [3]): 1580 nM

CTMERTNDL
IC50 (HLA-A*02:03; [3]): 25 nM
IC50 (HLA-A*68:02; [3]): 103 nM
IC50 (HLA-A*02:01 [2]; [3]): 345 nM
IC50 (HLA-A*02:06; [3]): 96 nM
IC50 (HLA-A*02:02; [3]): 36 nM
